Measured values: paper PMC8005443

Assays:
[1] = target: PI3Kα-RBD (Human PI3Kα residues 157–300) (human) (UniProt P42336); assay: ITC
[2] = target: PI3Kγ-RBD (residues 193–316) (human) (UniProt P48736); assay: ITC

Kd [1]	dH [1]	stoichiometry N [1]	Kd [2]	dH [2]	stoichiometry N [2]	Substance
4 µM	-2.59 kcal/mol	1.06	2.6 µM	-2.97 kcal/mol	0.91	KRAS4B^Q61H (from UniProt P01116-2 1-169) (enzyme)
2.3 µM	-3.82 kcal/mol	1.07	2.4 µM	-4.16 kcal/mol	0.81	KRAS4B^G12V (from UniProt P01116-2 1-169) (enzyme)
